We go through two molecules from patent publication US20210341478A1 (ANTAIMMU BIOMED, published 2021).

The target of this assay is T1, nucleocapsid protein of SARS-CoV-2 expressed in HEK-293 cells (SARS-CoV-2, UniProt P0DTC9 1-419).
T1 construct: also called 293-NP; 293-NP cell lysates
The assay can be described thus: ELISA on HEK-293 lysate 293-NP (FIG. 3).

B1: NP-4 IgG (antibody, V domains shown)
VH: EVQLVESGGGLVQPGGSLRLSCAASGFTITNWWIHWVRQAPGKGLEWVAAISPFNGKTHYADSVKGRFTISADTSKNTAYLQMNSLRAEDTAVYYCARLLSIYDYWGQGTLVTVSS
VL: DIQMTQSPSSLSASVGDRVSITCRASQDVWYYVAWYQQKPGKAPKLLISRTNWLDSGVPSRFSGSGSGTDFTLTISSLQPEDFATYYCQQYSDYPLTFGQGTKVEIKR
Regarding B1, the binding result was “binds”.

B2: NP-3 IgG (antibody, V domains shown)
VH: EVQLVESGGGLVQPGGSLRLSCAASGFTITDYGIHWVRQAPGKGLEWVAYIGPSDGDTHYADSVKGRFTISADTSKNTAYLQMNSLRAEDTAVYYCARTGGYNSWYMDYWGQGTLVTVSS
VL: DIQMTQSPSSLSASVGDRVTITCRASQDVNNWVAWYQQKPGKAPKLLIYFTSYLYSGVPSRFSGSGSGTDFTLTISSLQPEDFATYYCQQHSTYPFTFGQGTKVEIKR
With B2, the binding result is listed as “binds”.
